From doi:10.1101/2021.12.19.473342

Target: BrxR from Escherichia fergusonii ATCC 35469 plasmid pEFER (Escherichia fergusonii ATCC 35469)
Experiment: SEC

stoichiometry N: 2
Substance: BrxR from Escherichia fergusonii ATCC 35469 plasmid pEFER (natural protein)
